Data from patent US20050287607A1.
No end group written: not given here. *: point of attachment. Biotin = O=C1N[C@H]2[C@H](CS[C@H]2CCCCC(=O)*)N1

Key:
Assay in all cases: flow cytometry, R4A-tetramer staining of splenocytes
[1] = target: splenocytes of BALB/c mice immunized with adjuvant alone (mouse)
[2] = target: peptide-reactive B cells (surface immunoglobulin) in splenocytes of BALB/c mice immunized with MAP-peptide (R4A peptide on a branched polylysine backbone) (mouse)
[3] = target: splenocytes of BALB/c mice immunized with MAP-core (mouse)

frequency of tetramer-binding cells (percent of the gated population) (% of the gated population) [1]: < 0.05
frequency of cells staining (percent of gated cells) (% of gated cells) [2]: 1
frequency of tetramer-binding cells (percent of the gated population) (% of the gated population) [3]: < 0.05
Binder: Biotin-DWEYSLWLSN (peptide, part only; not given: labeled streptavidin, not shown: large carriers, also: tetramer with fluorochrome-labeled streptavidin/neutravidin) [R4A-tetramer (tetrameric fluorochrome-labeled form of the R4A peptide)]
